Results on 4 molecules are retold here after patent US20190016809A1 (MONASH UNIVERSITY, published 2019).

Assay [1] concerns the target T1, Peptide 2 (human, biotinylated (position not given)).
T1 construct: Biotinylated peptide of the human CXCR2 N-terminal region, captured on streptavidin plates; also called Nter-2; Peptide 2/Nter-2
T1 peptide: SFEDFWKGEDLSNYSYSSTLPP
In words: ELISA on biotinylated peptide captured on streptavidin. The method, then:
(§1) Epitope mapping studies were performed to determine the region within CXCR2 that is recognized by anti-CXCR2 mAb. Initially, biotinylated peptides corresponding to the N-terminal region and the first, second and third extracellular loops of human CXCR2 were used in an ELISA.
(§2) Three overlapping biotinylated peptides spanning the entire N-terminal region of human CXCR2 were then synthesized and used in more defined anti-CXCR2 mAb epitope mapping studies. Peptide 1 ([…]) (SEQ ID NO:53) corresponds to amino acid position 1-21 of the human CXCR2; Peptide 2 ([…]) (SEQ ID NO:55) corresponds to amino acid position 10-31 and Peptide 3 ([…]) (SEQ ID NO:54) corresponds to amino acid 20-46 position of the human CXCR2. Briefly, multiwell plates were coated with streptavidin and washed before the biotinylated peptides were added to separate wells and incubated to facilitate binding of the peptides to the plate. Different anti-human CXCR2 antibodies were then tested by adding the respective antibodies to the wells of the plate and incubating the plate. An isotype control and buffer only were included as negative controls. Following washing, appropriate conjugated antibodies were added and the plates were incubated. The plates were washed again and binding of the antibodies to the immobilised peptides was visualised.

In assay [2] the target is T2, Peptide 1 (human, biotinylated (position not given)).
T2 construct: Biotinylated peptide of the human CXCR2 N-terminal region, captured on streptavidin plates; also called Nter-1; Peptide 1/Nter-1
T2 peptide: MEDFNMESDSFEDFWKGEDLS
Described as above. The protocol: as §1, §2

Assay [3] deals with T3, Peptide 3 (human, biotinylated (position not given)).
T3 construct: Biotinylated peptide of the human CXCR2 N-terminal region; also called Nter-3; Peptide 3/Nter-3
T3 peptide: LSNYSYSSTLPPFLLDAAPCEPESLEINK
The assay is described as above. The method, then:
as §1, §2

Assay [4] addresses T4, biotinylated peptide corresponding to the second extracellular loop of human CXCR2 (human, UniProt P25025 184-208, limits assumed, biotinylated (position not given)).
T4 construct: domain: second extracellular loop; also called 2nd loop
T4 peptide (looked up): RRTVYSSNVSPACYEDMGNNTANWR
Described as above. The protocol: as §1, §2

Assay [5] concerns the target T5, human CXCR2 (human, UniProt P25025 1-360).
T5 construct: also called hCXCR2; C-X-C motif chemokine receptor 2
T5 sequence: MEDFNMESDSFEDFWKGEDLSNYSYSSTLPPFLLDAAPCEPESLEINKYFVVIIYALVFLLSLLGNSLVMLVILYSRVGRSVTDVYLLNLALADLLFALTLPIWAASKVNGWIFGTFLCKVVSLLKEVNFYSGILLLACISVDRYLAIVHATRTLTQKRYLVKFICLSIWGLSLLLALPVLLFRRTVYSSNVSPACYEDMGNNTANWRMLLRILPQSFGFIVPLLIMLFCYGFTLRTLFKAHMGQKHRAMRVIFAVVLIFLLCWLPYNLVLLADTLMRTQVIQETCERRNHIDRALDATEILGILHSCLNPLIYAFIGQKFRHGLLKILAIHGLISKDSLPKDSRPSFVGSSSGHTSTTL
Nature of the assay: competition with 125I-labelled CXCL3 (GRO-g) for CXCR2 on human neutrophils. The method, then: For ligand binding analysis, recombinant human GRO-g (“ligand”) was obtained from Peprotech (New Jersey, USA). 1251-Bolton-Hunter-labelled GRO-g was purchased from Perkin-Elmer (Boston, Mass., USA), with a specific activity of 2200 Ci/mM. Cells were washed once in binding buffer (50 mM Hepes, pH 7.5, 1 mM CaCI, 5 mM MgCb, 0.5% BSA) and resuspended in binding buffer at a concentration of 2.5×10^6 cells/ml. Cold Purified monoclonal antibody (cold competitor) was added to a 96-well plate followed by an equal volume (40 μl) binding buffer containing 1×10^5 cells. Cells and competitor were preincubated at room temperature for 15 min. Then radiolabeled ligand (final concentration 0.5-2 nM) was added to each well to give a final reaction volume of 120 μl. After a 60-min incubation at room temperature, the cells were washed three times with 1 ml of binding buffer containing 150 mM NaCl. The radioactivity (amount of bound label) in the cell pellets was counted in a TopCount liquid scintillation counter (Packard). Non-specific background binding was calculated by incubating cells […] radiolabelled-ligand. Samples were assayed in duplicate.

Assay [6] deals with T5, human CXCR2. Nature of the assay: flow cytometry on L1.2 hCXCR2 cells. (In general: In flow cytometry, cells or beads pass a laser one at a time.)
Assay [7] concerns the target T6, human CXCR1 (human, UniProt P25024 1-350).
T6 construct: whole, on cells; also called hCXCR1
T6 sequence (looked up): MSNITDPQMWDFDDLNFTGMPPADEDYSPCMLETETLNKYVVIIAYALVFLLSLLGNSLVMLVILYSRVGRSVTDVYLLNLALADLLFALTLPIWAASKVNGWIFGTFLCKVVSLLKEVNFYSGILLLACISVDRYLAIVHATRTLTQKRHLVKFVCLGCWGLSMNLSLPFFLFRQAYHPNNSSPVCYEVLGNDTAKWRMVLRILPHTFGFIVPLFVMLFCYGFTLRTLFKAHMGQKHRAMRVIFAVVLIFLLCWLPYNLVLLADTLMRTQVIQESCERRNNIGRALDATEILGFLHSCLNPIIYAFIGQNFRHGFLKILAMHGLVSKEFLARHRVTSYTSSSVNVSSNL
Nature of the assay: flow cytometry on transfected cells. The method, then:
(§3) To assess reactivity of mAbs against transfected cells, we used indirect immunofluorescence staining and flow cytometry. Cells were washed once with PBS and resuspended in 100 μl PBS containing 2% (wt/vol) BSA and 0.1% (wt/vol) sodium azide (staining buffer) and purified antibody. After 30 min at 4° C., cells were washed twice with staining buffer and resuspended in 50 μl PE-conjugated anti-human IgG (Jackson ImmunoResearch Laboratories) diluted 1:500 in staining buffer for the detection of humanized mAbs or 50 μl PE-conjugated anti-mouse IgG (Jackson ImmunoResearch Laboratories) for the detection of mouse mAbs. After incubating for 20 min at 4° C., cells were washed twice with staining buffer and analyzed on LSRII flow cytometer. 7-AAD staining was used to exclude dead cells.

For assay [8], the target named is T7, human CXCR7 (human, UniProt P25106 1-362).
T7 construct: whole, on cells; also called hCXCR7
In words: flow cytometry on transfected cells. The protocol:
as §3

The target of assay [9] is T8, human CXCR3 (human, UniProt P49682 1-368).
T8 construct: whole, on cells; also called hCXCR3
T8 sequence (looked up): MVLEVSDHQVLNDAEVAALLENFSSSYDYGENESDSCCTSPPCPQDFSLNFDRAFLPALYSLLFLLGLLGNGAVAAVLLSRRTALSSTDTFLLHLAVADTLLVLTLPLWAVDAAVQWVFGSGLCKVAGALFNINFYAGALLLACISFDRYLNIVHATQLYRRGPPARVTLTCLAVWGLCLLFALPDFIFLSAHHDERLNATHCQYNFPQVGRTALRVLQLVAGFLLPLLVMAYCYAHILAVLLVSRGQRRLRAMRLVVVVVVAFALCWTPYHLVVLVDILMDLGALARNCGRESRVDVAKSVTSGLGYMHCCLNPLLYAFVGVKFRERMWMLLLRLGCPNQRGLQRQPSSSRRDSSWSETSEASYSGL
In words: flow cytometry on transfected cells. The protocol: as §3

The target in assay [10] is T9, human CCR6 (human, UniProt P51684 1-374).
T9 construct: whole, on cells; also called hCCR6
T9 sequence (looked up): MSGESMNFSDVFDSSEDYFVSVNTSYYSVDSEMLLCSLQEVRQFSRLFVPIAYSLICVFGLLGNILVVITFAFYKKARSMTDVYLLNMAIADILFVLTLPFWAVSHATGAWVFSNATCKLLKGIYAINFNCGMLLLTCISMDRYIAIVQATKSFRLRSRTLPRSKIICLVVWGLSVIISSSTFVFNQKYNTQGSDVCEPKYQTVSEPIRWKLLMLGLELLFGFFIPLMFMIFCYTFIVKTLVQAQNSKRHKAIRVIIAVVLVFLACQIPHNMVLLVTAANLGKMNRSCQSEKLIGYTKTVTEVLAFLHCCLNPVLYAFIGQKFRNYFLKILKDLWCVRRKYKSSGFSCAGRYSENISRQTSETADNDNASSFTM
In words: flow cytometry on transfected cells. The method, then:
as §3

The target in assay [11] is T10, human CXCR2 (UniProt P25025 1-360).
T10 chain: T5 sequence
In words: flow cytometry, CXCR2 L1.2 cells.

In assay [12] the target is T5, human CXCR2. Nature of the assay: ELISA, L1.2 hCXCR2 cells.

Changes are numbered by the printed parent chain.

T7 sequence (P25106 whole entry): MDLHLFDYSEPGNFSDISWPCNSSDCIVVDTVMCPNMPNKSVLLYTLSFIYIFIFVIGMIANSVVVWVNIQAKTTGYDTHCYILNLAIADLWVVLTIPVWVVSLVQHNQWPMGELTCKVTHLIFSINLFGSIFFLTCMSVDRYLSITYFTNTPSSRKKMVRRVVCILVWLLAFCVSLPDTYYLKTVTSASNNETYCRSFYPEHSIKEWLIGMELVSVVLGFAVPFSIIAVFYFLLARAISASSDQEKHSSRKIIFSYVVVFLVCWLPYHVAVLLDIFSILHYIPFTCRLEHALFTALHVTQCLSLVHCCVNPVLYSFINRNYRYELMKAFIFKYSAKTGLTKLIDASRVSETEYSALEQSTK

B1: m3H9 (antibody, mouse IgG3, V domains shown)
VH: QVQLQQSGPELVKPGASVKISCKASGYAFSNSWMNWVKQRPGKGLEWIGRIYPGDGNINYYGKFKDKATLTADKSSNTAYMQLSSLTSEDSAVYFCARSFLYVDFDYWGQGTTLTVSS
VL: VIVMTQTPLSLPVSLGDQASISCRSSQSLVHSNGNTYLQWYLQKPGQSPKLLIYKVSNRFSGVPDRFSGSGSGTDFTLKISRVEAEDLGVYFCSQGTHVPYTFGGGTKLEIKR
notes: also called mouse 3H9; purified mouse 3H9 mAb
Broadly, the IC50 is the concentration that gives 50% inhibition. A lower IC50 goes with greater potency in that assay. Broadly, the EC50 is the midpoint of the concentration-response curve. Higher therefore signals a less potent agent. On to B1, for which the binding result is on record as “binds” in assay [1]; “binds” in assay [2]; “no binding” in assay [3]; “no binding” in [4]; “no binding” in assay [7]; “no binding” in [8]. The binding result in assay [9] and in assay [10] was “no binding” each time. Moreover, the IC50 in [5] is 0.7 nM. Also, the results for the EC50 in assay [6], in [11] and in assay [12] were 1.05 nM, 1.5 nM and 1.2 nM, respectively.

B2: h3H9 (antibody, V domains shown)
VH: QVQLVQSGAEVKKPGASVKVSCKASGYAFSNSWMNWVRQAPGQRLEWIGRIYPGDGNINYYGKFKDKATLTADKSANTAYMELSSLRSEDTAVYFCARSFLYVDFDYWGQGTTLTVSS
VL: B1 VL with V1D, T7S, S14T, L15P, D17E, Q18P, K50Q, L88V, G105Q
B2 had an EC50 in assay [11] of 2.2 nM. In other words, the single-digit nanomolar range.

B3: mCM2 (antibody, V domains shown)
VH: B1 VH with D104Y
VL: B1 VL with V1D, I2A, V56L, S72A, G96S
notes: Mouse hybridoma monoclonal antibody
B3: the binding result in [1] was “binds”; in assay [2], “binds”; in assay [3], “no binding”; in assay [4], “no binding”; in assay [7], “no binding”; in [8], “no binding”. For the same molecule, the binding result in [9] and in assay [10] was “no binding” throughout. The molecule also yielded an IC50 in [5] of 11.1 nM. For the same molecule, the half-maximal effective concentration (EC50) turned out to be 1.35 nM in assay [6] and 1.4 nM in assay [12].

B4: m6G7 (antibody, V domains shown)
VH: B1 VH
VL: B1 VL with V1D, I2V, T7A, S28T
notes: as for B3
With B4, the binding result was “binds” in assay [1]; “binds” in [2]; “no binding” in [3]; “no binding” in [4]; “no binding” in [7]; “no binding” in [8]. The binding result in assay [9] and in assay [10] was “no binding” in each case. In [5], the half-maximal inhibitory concentration (IC50) worked out at 3.4 nM. For the same molecule, the values for the EC50 in assay [6] and in assay [12] were 1.28 nM and 1.46 nM, respectively.
